Data as given in paper PMC12489471, “A multi-dentate, cooperative interaction between endo- and exo-ribonucleases within the bacterial RNA degradosome” (Nucleic Acids Research, 2025).

Experiments:
[1] = tested on: full-length PNPase; experiment: Cryo-EM of full-length PNPase:RNase E 960–1061; type: binding, E. coli
[2] = tested on: PNPase core; experiment: Cryo-EM of E. coli PNPase core:RNase E complex; type: binding; conditions: 20 mM Tris–HCl pH 8.0, 25 mM MgCl2, 150 mM KCl, 1 mM TCEP
Method: The PNPase core encoding sequence from E. coli (aa 1–552), Salmonella enterica serovar Typhimurium (UniProt: Q8ZLT3) (aa 1–552), or Pseudomonas aeruginosa (strain PAO1, UniProt: Q9HV59) (aa 1–553) was amplified using corresponding genomic DNA as a template and cloned into pExp-Mxe-CHis expression vector. The protein of interest, produced as a fusion with C-terminal 8×His-tagged Mycobacterium xenopi GyrA intein, was expressed in Evo21(DE3) cells at 18°C overnight following induction with 0.4 mM IPTG. […] After cleavage, the protein buffer was exchanged using HiPrep 26/10 desalting column (Cytiva), and the protein solution was reapplied to Ni-NTA resin to remove His-tagged intein and uncleaved material. […]
Purified PNPase core and RNE-muGFP-CHis proteins were mixed in 1:2 ratio and their complex were separated on the Superdex 200 Increase 10/300 GL column (Cytiva) equilibrated with cryo-EM Buffer (20 mM Tris–HCl, pH 8.0, 25 mM MgCl2, 150 mM KCl, 1 mM TCEP). […] The samples were mixed with CHAPSO (3-([3-cholamidopropyl]dimethylammonio)-2-hydroxy-1-propanesulfonate) at a final concentration of 8 mM before being applied onto R2/2 Au Ultrafoil grids (Quantifoil) that had been pre-treated by glow-discharge (PELCO easiGLOW: 60 s, 25 mA, 0.39 mBar). […]

B1: RNase E 960 – 1061 wildtype: wildtype RNase E peptide 960–1061 (peptide)
chain: VVETAEVVVAEPEVVAQPAAPVVAEVAAEVETVAAVEPEVTVEHNHATAPMTRAPAPEYVPEAPRHSDWQRPTFAFEGKGAAGGHTATHHASAAPARPQPVE
modifications: left off: His6, N-terminal, cleaved | MBP, N-terminal, cleaved | intein, C-terminal, cleaved | choline-binding domain, C-terminal, cleaved
location of extra density / binding on PNPase ([1]; cryo-EM, PNPase:RNase E 960–1061): bridging two b-strands
interaction with KH and S1 domains of PNPase ([1]; preliminary cryo-EM map, full-length PNPase): does not interact with the KH and S1 domains of PNPase
binding mode / stoichiometry with E. coli PNPase core [2]: interacting with two protomers of the trimeric PNPase core
